Legend:
[1] = target: HLA-A*02 (Homo sapiens, UniProt P04439, D140Y/D185E/D98H/E176V/E277Q/G131W/G231S/I119V/I121R/I166T/I218V/L300P/N151K/N90K/P208A/P217A/Q86G/Q94H/R138H/R169H); experiment: MHC binding assay (UV-ligand exchange, beta2m ELISA), HLA-A*02; settings: peptide exchange yield, binding to HLA-A*02, UV-ligand exchange, β2m ELISA
Excerpt: (§1) Candidate peptides for T cell based therapies according to the present invention were further tested for their MHC binding capacity (affinity). The individual peptide-MHC complexes were produced by UV-ligand exchange, where a UV-sensitive peptide is cleaved upon UV-irradiation, and exchanged with the peptide of interest as analyzed. Only peptide candidates that can effectively bind and stabilize the peptide-receptive MHC molecules prevent dissociation of the MHC complexes. To determine the yield of the exchange reaction, an ELISA was performed based on the detection of the light chain (β2m) of stabilized MHC complexes. The assay was performed as generally described in Rodenko et al. (Rodenko et al., 2006).
(§2) 96 well MAXISorp plates (NUNC) were coated over night with 2 ug/ml streptavidin in PBS at room temperature, washed 4× and blocked for 1 h at 37° C. in 2% BSA containing blocking buffer. Refolded HLA-A*02:01/MLA-001 monomers served as standards, covering the range of 15-500 ng/ml. Peptide-MHC monomers of the UV-exchange reaction were diluted 100 fold in blocking buffer. Samples were incubated for 1h at 37° C., washed four times, incubated with 2 ug/ml HRP conjugated anti-62m for 1 h at 37° C., washed again and detected with TMB solution that is stopped with […]. Absorption was measured at 450 nm. Candidate peptides that show a high exchange yield (preferably higher than 50%, most preferred higher than 75%) are generally preferred for a generation and production of antibodies or fragments thereof, and/or T cell receptors or fragments thereof, as they show sufficient avidity to the MHC molecules and prevent dissociation of the MHC complexes.

[2] = tested on: CD8+ T cells; experiment: In vitro immunogenicity: T-cell priming with aAPCs loaded with peptide/MHC and anti-CD28, multimer staining; type: cell-based, human; settings: for Wells positive [%]: in vitro immunogenicity of HLA class I peptides, peptide-specific multimer staining after aAPC priming of CD8+ T cells; for Wells (in vitro immunogenicity): healthy donor CD8+ T cells, three stimulation cycles, multimer readout
Excerpt: In order to obtain information regarding the immunogenicity of the TUMAPs of the present invention, the inventors performed investigations using an in vitro T-cell priming assay based on repeated stimulations of CD8+ T cells with artificial antigen presenting cells (aAPCs) loaded with peptide/MHC complexes and anti-CD28 antibody.
In order to perform in vitro stimulations by artificial antigen presenting cells loaded with peptide-MHC complex (pMHC) and anti-CD28 antibody, the inventors first isolated CD8+ T cells from fresh HLA-A*02 leukapheresis products via positive selection using CD8 microbeads (Miltenyi Biotec, Bergisch-Gladbach, Germany) of healthy donors obtained from the University clinics Mannheim, Germany, after informed consent.
PBMCs and isolated CD8+ lymphocytes were incubated in T-cell medium (TCM) until use consisting of RPMI-Glutamax (Invitrogen, Karlsruhe, Germany) supplemented with 10% heat inactivated human AB serum (PAN-Biotech, Aidenbach, Germany), 100 U/ml Penicillin/100 μg/ml Streptomycin (Cambrex, Cologne, Germany), 1 mM sodium pyruvate (CC Pro, Oberdorla, Germany), 20 µg/ml Gentamycin (Cambrex). 2.5 ng/ml IL7 (PromoCell, Heidelberg, Germany) and 10 U/ml IL-2 (Novartis Pharma, Nurnberg, Germany) were also added to the TCM at this step.
Generation of pMHC/anti-CD28 coated beads, T-cell stimulations and readout was performed in a highly defined in vitro system using four different pMHC molecules per stimulation condition and 8 different pMHC molecules per readout condition.
The purified co-stimulatory mouse IgG2a anti human CD28 Ab 9.3 (Jung et al., 1987) was chemically biotinylated using Sulfo-N-hydroxysuccinimidobiotin as recommended by the manufacturer (Perbio, Bonn, Germany). Beads used were 5.6 μm diameter streptavidin coated polystyrene particles (Bangs Laboratories, Illinois, USA).
pMHC used for positive and negative control stimulations were A*0201/MLA-001 (peptide […] (SEQ ID NO. 303) from modified Melan-A/MART-1) and A*0201/DDX5-001 ([…] from DDX5, SEQ ID NO. 304), respectively.
800.000 beads/200 μl were coated in 96-well plates in the presence of 4×12.5 ng different biotin-pMHC, washed and 600 ng biotin anti-CD28 were added subsequently in a volume of 200 μl. Stimulations were initiated in 96-well plates by co-incubating 1×10^6 CD8+ T cells with 2×10^5 washed coated beads in 200 μI TCM supplemented with 5 ng/ml IL-12 (PromoCell) for 3 days at 37° C. Half of the medium was then exchanged by fresh TCM supplemented with 80 U/ml IL-2 and incubating was continued for 4 days at 37° C. This stimulation cycle was performed for a total of three times. For the pMHC multimer readout using 8 different pMHC molecules per condition, a two-dimensional combinatorial coding approach was used as previously described (Andersen et al., 2012) with minor modifications encompassing coupling to 5 different fluorochromes. Finally, multimeric analyses were performed by staining the cells with Live/dead near IR dye (Invitrogen, Karlsruhe, Germany), CD8-FITC antibody clone SK1 (BD, Heidelberg, Germany) and fluorescent pMHC multimers. For analysis, a BD LSRII SORP cytometer equipped with appropriate lasers and filters was used. Peptide specific cells were calculated as percentage of total CD8+ cells. Evaluation of multimeric analysis was done using the FlowJo software (Tree Star, Oreg., USA). In vitro priming of specific multimer+CD8+ lymphocytes was detected by comparing to negative control stimulations.

[3] = tested on: HLA-A*24; experiment: MHC binding assay (UV-ligand exchange, beta2m ELISA), HLA-A*24; design: species or system human; settings: peptide exchange yield, binding to HLA-A*24, UV-ligand exchange, β2m ELISA
Excerpt: as §1, §2

Row | Peptide exchange [1] | Substance | Wells positive [%] [2] | other results
1 | ++++ (>=75% = ++++) | 112 (SLGKFTFDV; listed as Homo sapiens) [compound 112] |  | 
2 | ++++ (>=75% = ++++) | 95 (GLLGSLFFL; listed as Homo sapiens) [compound 95] |  | 
3 | ++++ (>=75% = ++++) | 12 (GLLPLLHRA; listed as Homo sapiens) [compound 12] | ++++ (>=70% = ++++) | 
4 | + (<20% = +) | 100 (ALLGMIIVGV; listed as Homo sapiens) [compound 100] |  | 
5 |  | 158 (HYSQELSLLYL; listed as Homo sapiens) [compound 158] | + (<20% = +) | Peptide exchange [3]: ++++ (>=75% = ++++)
6 | ++++ (>=75% = ++++) | 16 (YTLDIPVLFGV; listed as Homo sapiens) [compound 16] |  | 
7 | ++++ (>=75% = ++++) | 147 (YLMDDTVEI; listed as Homo sapiens) [compound 147] |  | 
8 |  | 163 (DYLKGLASF; listed as Homo sapiens) [compound 163] | + (<20% = +) | Peptide exchange [3]: ++++ (>=75% = ++++)
9 | ++++ (>=75% = ++++) | 92 (GLLFSLRSV; listed as Homo sapiens) [compound 92] |  | 
10 | ++++ (>=75% = ++++) | 125 (SLADYEHFV; listed as Homo sapiens) [compound 125] |  | 
11 |  | 167 (NYINRILKL; listed as Homo sapiens) [compound 167] | + (<20% = +) | Peptide exchange [3]: ++++ (>=75% = ++++)
12 | ++++ (>=75% = ++++) | 1 (LLYPEPWSV; listed as Homo sapiens) [compound 1] |  | 
13 | ++++ (>=75% = ++++) | 14 (ILAKDLFEI; listed as Homo sapiens) [compound 14] |  | 
14 | ++++ (>=75% = ++++) | 249 (GLCERLVSL; listed as Homo sapiens) [compound 249] | + (<20% = +) | 
15 | ++++ (>=75% = ++++) | 4 (KLMPGTYTL; listed as Homo sapiens) [compound 4] | + (<20% = +) | 
16 | ++++ (>=75% = ++++) | 3 (KLEENGDLYL; listed as Homo sapiens) [compound 3] |  | 
17 | ++++ (>=75% = ++++) | 153 (FISERVEVV; listed as Homo sapiens) [compound 153] |  | 
18 | + (<20% = +) | 82 (FIFDEAEKL; listed as Homo sapiens) [compound 82] |  | 
19 | ++++ (>=75% = ++++) | 51 (LLFSRLCGA; listed as Homo sapiens) [compound 51] |  | 
20 |  | 165 (DYTTWTALL; listed as Homo sapiens) [compound 165] | + (<20% = +) | Peptide exchange [3]: ++++ (>=75% = ++++)
21 | ++++ (>=75% = ++++) | 84 (ALCPRIHEV; listed as Homo sapiens) [compound 84] |  | 
22 | + (<20% = +) | 42 (LLDSVSRL; listed as Homo sapiens) [compound 42] |  | 

Row | Peptide exchange [1] | Substance | Wells positive [%] [2] | other results
23 | ++++ (>=75% = ++++) | 245 (SLLDLPLSL; listed as Homo sapiens) [compound 245] |  | 
24 | ++++ (>=75% = ++++) | 229 (AILAHLNTV; listed as Homo sapiens) [compound 229] |  | 
25 | ++++ (>=75% = ++++) | 129 (RLQDILWFL; listed as Homo sapiens) [compound 129] |  | 
26 | ++++ (>=75% = ++++) | 258 (LLSERFINV; listed as Homo sapiens) [compound 258] |  | 
27 |  | 218 (YYKSTSSAF; listed as Homo sapiens) [compound 218] | + (<20% = +) | 
28 |  | 29 (YLLDPSITL; listed as Homo sapiens) [compound 29] | + (<20% = +) | 
29 | + (<20% = +) | 120 (VTPVTVSAV; listed as Homo sapiens) [compound 120] |  | 
30 |  | 285 (HYPPVQVLF; listed as Homo sapiens) [compound 285] | + (<20% = +) | 
31 |  | 298 (RYLEGTSCI; listed as Homo sapiens) [compound 298] |  | Wells (in vitro immunogenicity) [2]: + (<20% = +)
32 | ++++ (>=75% = ++++) | 126 (QMFQYFITV; listed as Homo sapiens) [compound 126] |  | 
33 | ++++ (>=75% = ++++) | 248 (YLDRFLAGV; listed as Homo sapiens) [compound 248] |  | 
34 |  | 204 (TYELRYFQI; listed as Homo sapiens) [compound 204] | + (<20% = +) | Peptide exchange [3]: ++++ (>=75% = ++++)
35 |  | 23 (SLFSDEFKV; listed as Homo sapiens) [compound 23] | ++++ (>=70% = ++++) | 
36 |  | 159 (LYNKGFIYL; listed as Homo sapiens) [compound 159] | ++++ (>=70% = ++++) | Peptide exchange [3]: ++++ (>=75% = ++++)
37 | ++++ (>=75% = ++++) | 257 (GLYTDPCGV; listed as Homo sapiens) [compound 257] |  | 
38 | ++++ (>=75% = ++++) | 34 (FLLATEVVTV; listed as Homo sapiens) [compound 34] |  | 
39 |  | 207 (AYVVFVSTL; listed as Homo sapiens) [compound 207] | + (<20% = +) | 
40 |  | 300 (AYVLRLETL; listed as Homo sapiens) [compound 300] |  | Wells (in vitro immunogenicity) [2]: + (<20% = +)
41 | ++++ (>=75% = ++++) | 133 (ALLPRLHQL; listed as Homo sapiens) [compound 133] |  | 
42 |  | 297 (PFLQASPHF; listed as Homo sapiens) [compound 297] |  | Wells (in vitro immunogenicity) [2]: ++ (20%-49% = ++)
43 |  | 292 (GMMTAILGV; listed as Homo sapiens) [compound 292] |  | Wells (in vitro immunogenicity) [2]: + (<20% = +)

Source: patent publication US10004792B2, “Peptides and combination of peptides for use in immunotherapy against various cancers” (immatics biotechnologies GmbH, priority 2015, dated 2018)
